Source: PMC10400533, “Exploring the G-quadruplex binding and unwinding activity of the bacterial FeS helicase DinG”

Experiments:
DinG helicase [1] = target: T1, DinG helicase (Escherichia coli, UniProt P27296 1-716); assay: SPR; SPR single-cycle kinetics, 25 C, DinG immobilized, DNA 0.062-1 uM; DNA prepared in 10 mM potassium phosphate, 50 mM KCl, pH 7.5; SPR running buffer not in material; conditions: protein: recombinant, tags: His-tag
T1 sequence: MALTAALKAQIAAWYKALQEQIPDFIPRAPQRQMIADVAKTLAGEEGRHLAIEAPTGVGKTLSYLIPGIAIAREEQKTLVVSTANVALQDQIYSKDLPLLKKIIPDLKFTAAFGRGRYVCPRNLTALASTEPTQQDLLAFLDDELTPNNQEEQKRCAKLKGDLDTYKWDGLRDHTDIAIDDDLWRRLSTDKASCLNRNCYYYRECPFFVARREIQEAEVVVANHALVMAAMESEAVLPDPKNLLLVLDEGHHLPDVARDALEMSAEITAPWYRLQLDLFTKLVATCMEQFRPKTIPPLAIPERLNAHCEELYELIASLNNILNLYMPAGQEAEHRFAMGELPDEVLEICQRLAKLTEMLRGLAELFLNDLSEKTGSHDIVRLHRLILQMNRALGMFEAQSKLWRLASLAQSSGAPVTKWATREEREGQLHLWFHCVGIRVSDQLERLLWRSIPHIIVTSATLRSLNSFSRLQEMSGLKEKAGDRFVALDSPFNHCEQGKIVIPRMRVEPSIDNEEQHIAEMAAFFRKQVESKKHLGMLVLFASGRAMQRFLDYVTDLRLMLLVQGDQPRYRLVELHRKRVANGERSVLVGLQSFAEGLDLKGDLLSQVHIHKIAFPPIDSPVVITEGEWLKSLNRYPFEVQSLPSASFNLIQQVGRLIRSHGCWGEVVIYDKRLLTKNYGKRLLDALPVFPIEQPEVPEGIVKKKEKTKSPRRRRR

DinG helicase [2] = target: T1, DinG helicase; assay: SPR; Netropsin; SPR single-cycle kinetics, 25 C, DinG immobilized, DNA 0.062-1 uM; DNA prepared in 10 mM potassium phosphate, 50 mM KCl, pH 7.5; SPR running buffer not in material; conditions: protein: recombinant; tags: His-tag; parallel unimolecular G4

GGTGGGGAGGGGTAAGGGG (structured_DNA) [EC-6]
Kd (DinG helicase [1]; G4): 36.7 nM

AGGGCGGTGTGGGAATAGGGAA (structured_DNA) [KRAS]
Kd (DinG helicase [1]; parallel unimolecular G4): 46.4 nM

GGTGGGGGGGCGGGGGAGGCCGGG (structured_DNA) [Zic1]
Kd (DinG helicase [1]; parallel G4): 22.8 nM

GTGTGTGTGTGTGTGTGTGTGTGTGTGTGT (ssDNA) [G-scramble]
Kd (DinG helicase [1]; no G4 or other secondary structure): 126 nM

AGGGAGGGCGCTGGGAGGAGGG (structured_DNA) [c-KIT1]
Kd (DinG helicase [2]): 31.5 nM | Kd (DinG helicase [1]; parallel unimolecular G4): 28.9 nM

GGGCGCGGGAGGAATTGGGCGGG (structured_DNA) [BCL2]
Kd (DinG helicase [1]; hybrid [3+1] unimolecular G4): 21 nM

TAGGGTTAGGGTTAGGGTTAGGG (structured_DNA) [Tel23]
Kd (DinG helicase [1]; hybrid [3+1] unimolecular G4): 9.4 nM

GGGGCGGGGTGGGTTGG (structured_DNA) [EC-9]
Kd (DinG helicase [1]; G4): 34.9 nM

GGGGGAGGAGGACGGGGG (structured_DNA) [EC-7]
Kd (DinG helicase [1]; G4): 56.9 nM

B1: DNA-fork (D1/D2) (dsDNA)
DNA 1: CTACTACCCCCACCCTCACAACCTTTTTTTTTTTTTT
DNA 2: TTTTTTTTTTTTTTGGTTGTGAGGGTGGGGGTAGTAG
Kd (DinG helicase [1]; fork 1:2, 23 bp duplex, 3' T14 tail on strand 1 and 5' T14 tail on strand 2): 55.9 nM

AGGGTGGGTAGGGTGGGT (structured_DNA) [c-MYC]
Kd (DinG helicase [1]; parallel unimolecular G4): 30.6 nM

GGGTGGGTGGGTGGGT (structured_DNA) [T30695]
Kd (DinG helicase [1]; dimeric parallel G4 of 2 strands): 163 nM
